Laboratory results from patent US20180117084A1.

Molecular target: full-length CTLA-4 (flCTLA-4) secreted by human dendritic cells on microvesicles/exosomes (human) (UniProt P16410)
Assay: cell-based or functional assay

Chain of UniProt P16410 (P16410 36-223 limits assumed): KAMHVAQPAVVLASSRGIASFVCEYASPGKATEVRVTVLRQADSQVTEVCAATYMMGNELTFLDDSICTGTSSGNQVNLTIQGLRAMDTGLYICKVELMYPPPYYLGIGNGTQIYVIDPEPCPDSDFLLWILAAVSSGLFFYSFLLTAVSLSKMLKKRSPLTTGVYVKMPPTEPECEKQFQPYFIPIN

percentage of CFSE+ recipient DC after pre-clearance of supernatant with αCTLA-4 beads (20 minutes at 4 C, 0.1% sodium azide): 45% | uptake of CFSE-labeled exosomes by unlabeled DC after incubation of supernatant with αCTLA-4 coated beads, antibody at 5 µg/ml: 26% | uptake of CFSE-labeled exosomes by unlabeled DC after incubation of supernatant with αCTLA-4 coated beads, antibody at 50 µg/ml: 35%
Substance: αHuman CTLA-4 clone BNI3 (cat #: 555851, BD Pharmingen) (antibody)
